We go through 42 molecules from US20090048164A1 (WALTER AND ELIZA HALL INSTITUTE OF MEDICAL RESEARCH, published 2009).

Where two headings read alike, the source gives them in different places.

Holding throughout (assay): competition phage ELISA
The target in experiment [1] is T1, Bcl-w.
T1 chain: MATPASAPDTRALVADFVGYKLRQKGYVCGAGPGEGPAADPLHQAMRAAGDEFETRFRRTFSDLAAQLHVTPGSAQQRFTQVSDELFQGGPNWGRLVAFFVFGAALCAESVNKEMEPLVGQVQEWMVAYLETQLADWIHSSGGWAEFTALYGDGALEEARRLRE

Experiment [2] concerns the target T1, Bcl-w.
In experiment [3] the target is Bcl-2.
Bcl-2, sequence (chain, as listed by the source): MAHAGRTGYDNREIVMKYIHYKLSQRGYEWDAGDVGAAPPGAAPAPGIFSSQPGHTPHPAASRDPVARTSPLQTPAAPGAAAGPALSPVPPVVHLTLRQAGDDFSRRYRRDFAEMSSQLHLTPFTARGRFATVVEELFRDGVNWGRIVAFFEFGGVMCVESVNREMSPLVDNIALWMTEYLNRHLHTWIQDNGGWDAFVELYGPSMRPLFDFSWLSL

B1: Bid BH3 S18A, phage-displayed (peptide)
peptide: QEDIIRNIARHLAQVGDAMDRSIPPG
notes: M13 phage display: FLAG-26mer-GGGT-g3(249-406)
Take B1: in experiment [1], the Fold/wt is 1 fold and the IC50 was 31 nM.

B2: Bid BH3 I23A, phage-displayed (peptide)
peptide: QEDIIRNIARHLAQVGDSMDRSAPPG
notes: as for B1
In experiment [1], B2 displayed a Fold/wt of 1 fold and an IC50 of 18 nM.

B3: Bad BH3 D21A, phage-displayed (peptide)
peptide: NLWAAQRYGRELRRMSDEFVASFKKG
notes: as for B1
On to B3, for which, in experiment [2], the Fold/wt was 1 fold and the IC50 is 28 nM. In experiment [3], this molecule yielded a Fold/wt of 1 fold and an IC50 of 17 nM.

B4: Bad BH3 S22A, phage-displayed (peptide)
peptide: NLWAAQRYGRELRRMSDEFVDAFKKG
notes: as for B1
In experiment [2], B4 came in with a Fold/wt of 2 fold and an IC50 of 77 nM. In experiment [3], this molecule came in with a Fold/wt of 1 fold and an IC50 of 19 nM.

B5: Bid BH3 A13E, phage-displayed (peptide)
peptide: QEDIIRNIARHLEQVGDSMDRSIPPG
notes: as for B1
For the molecule B5, in experiment [1], the Fold/wt stood at 11 fold and the IC50 amounted to 253 nM.

B6: Bid BH3 Q1A, phage-displayed (peptide)
peptide: AEDIIRNIARHLAQVGDSMDRSIPPG
notes: as for B1
Consider B6, for which, in experiment [1], the Fold/wt worked out at 1 fold and the IC50 stood at 29 nM.

B7: Bad BH3 A5E, phage-displayed (peptide)
peptide: NLWAEQRYGRELRRMSDEFVDSFKKG
notes: as for B1
Take B7: the Fold/wt was 4 fold in experiment [2] and 2 fold in experiment [3]. Also, the figures for the IC50 in experiment [2] and in experiment [3] were 152 nM and 26 nM, respectively.

B8: Bad BH3 V20A, phage-displayed (peptide)
peptide: NLWAAQRYGRELRRMSDEFADSFKKG
notes: as for B1
As to B8, in experiment [2], the Fold/wt worked out at 1 fold and the IC50 was found to be 38 nM. Moreover, in experiment [3], the Fold/wt turned out to be 1 fold and the IC50 was determined as 13 nM.

B9: Bid BH3 P24A, phage-displayed (peptide)
peptide: QEDIIRNIARHLAQVGDSMDRSIAPG
notes: as for B1
In experiment [1], B9 returned a Fold/wt of 1 fold and an IC50 of 25 nM.

B10: Bid BH3 Q14A, phage-displayed (peptide)
peptide: QEDIIRNIARHLAAVGDSMDRSIPPG
notes: as for B1
On to B10, for which, in experiment [1], the Fold/wt was 1 fold and the IC50 was 25 nM.

B11: Bad BH3 N1A, phage-displayed (peptide)
peptide: ALWAAQRYGRELRRMSDEFVDSFKKG
notes: as for B1
As for B11, in experiment [2], the Fold/wt was found to be 1 fold and the IC50 amounted to 47 nM. Further, in experiment [3], the Fold/wt was 1 fold and the IC50 amounted to 10 nM.

B12: Bad BH3 A4E, phage-displayed (peptide)
peptide: NLWEAQRYGRELRRMSDEFVDSFKKG
notes: as for B1
Regarding B12, the Fold/wt in experiment [2] and in experiment [3] was 1 fold each time. The IC50 in experiment [2] came out at 46 nM; in experiment [3], 10 nM.

B13: Bid BH3 P25A, phage-displayed (peptide)
peptide: QEDIIRNIARHLAQVGDSMDRSIPAG
notes: as for B1
B13: in experiment [1], the Fold/wt is 1 fold and the half-inhibitory concentration (IC50) worked out at 26 nM.

B14: Bad BH3 R13A, phage-displayed (peptide)
peptide: NLWAAQRYGRELARMSDEFVDSFKKG
notes: as for B1
Take B14: in experiment [2], the Fold/wt came out at 1 fold and the IC50 is 52 nM. In experiment [3], this molecule registered a Fold/wt of 1 fold and an IC50 of 19 nM.

B15: Bid BH3 N7A, phage-displayed (peptide)
peptide: QEDIIRAIARHLAQVGDSMDRSIPPG
notes: as for B1
In experiment [1], B15 registered a Fold/wt of 1 fold and an IC50 of 25 nM.

B16: Bid BH3 L12A, phage-displayed (peptide)
peptide: QEDIIRNIARHAAQVGDSMDRSIPPG
notes: as for B1
In experiment [1], B16 gave a Fold/wt of 25 fold and an IC50 of 553 nM.

B17: Bad BH3 F23A, phage-displayed (peptide)
peptide: NLWAAQRYGRELRRMSDEFVDSAKKG
notes: as for B1
In experiment [2], B17 showed a Fold/wt of 2 fold and an IC50 of 83 nM.

B18: Bad BH3 Y8A, phage-displayed (peptide)
peptide: NLWAAQRAGRELRRMSDEFVDSFKKG
notes: as for B1
With B18, the figures for the Fold/wt in experiment [2] and in experiment [3] were 2 fold and 1 fold, respectively. The half-inhibitory concentration (IC50) in experiment [2] came to 77 nM; in experiment [3], 19 nM.

B19: Bid BH3 I8A, phage-displayed (peptide)
peptide: QEDIIRNAARHLAQVGDSMDRSIPPG
notes: as for B1
Consider B19, for which, in experiment [1], the Fold/wt turned out to be 8 fold and the IC50 was found to be 182 nM.

B20: Bad BH3 Q6A, phage-displayed (peptide)
peptide: NLWAAARYGRELRRMSDEFVDSFKKG
notes: as for B1
In experiment [2], B20 came in with a Fold/wt of 1 fold and an IC50 of 47 nM. Further, in experiment [3], the Fold/wt came to 1 fold and the IC50 was determined as 18 nM.

B21: Bid BH3 H11A, phage-displayed (peptide)
peptide: QEDIIRNIARALAQVGDSMDRSIPPG
notes: as for B1
As for B21, in experiment [1], the Fold/wt is 1 fold and the IC50 came to 17 nM.

B22: Bid BH3 R6A, phage-displayed (peptide)
peptide: QEDIIANIARHLAQVGDSMDRSIPPG
notes: as for B1
B22: in experiment [1], the Fold/wt came to 2 fold and the IC50 is 42 nM.

B23: Bid BH3 D20A, phage-displayed (peptide)
peptide: QEDIIRNIARHLAQVGDSMARSIPPG
notes: as for B1
In experiment [1], B23 showed a Fold/wt of 1 fold and an IC50 of 24 nM.

B24: Bad BH3 D17A, phage-displayed (peptide)
peptide: NLWAAQRYGRELRRMSAEFVDSFKKG
notes: as for B1
In experiment [2], B24 had a Fold/wt of 3 fold and an IC50 of 128 nM.

B25: Bid BH3 I5A, phage-displayed (peptide)
peptide: QEDIARNIARHLAQVGDSMDRSIPPG
notes: as for B1
B25: in experiment [1], the Fold/wt turned out to be 2 fold and the IC50 stood at 34 nM.

B26: Bid BH3 I4A, phage-displayed (peptide)
peptide: QEDAIRNIARHLAQVGDSMDRSIPPG
notes: as for B1
In experiment [1], B26 yielded a Fold/wt of 1 fold and an IC50 of 23 nM.

B27: Bad BH3 K24A, phage-displayed (peptide)
peptide: NLWAAQRYGRELRRMSDEFVDSFAKG
notes: as for B1
Turning to B27, in experiment [2], the Fold/wt turned out to be 1 fold and the IC50 came to 54 nM. In experiment [3], the Fold/wt turned out to be 1 fold and the IC50 worked out at 14 nM.

B28: Bid BH3 D3A, phage-displayed (peptide)
peptide: QEAIIRNIARHLAQVGDSMDRSIPPG
notes: as for B1
In experiment [1], B28 returned a Fold/wt of 1 fold and a half-inhibitory concentration (IC50) of 34 nM.

B29: Bid BH3 R10A, phage-displayed (peptide)
peptide: QEDIIRNIAAHLAQVGDSMDRSIPPG
notes: as for B1
Turning to B29, in experiment [1], the Fold/wt was 2 fold and the IC50 worked out at 46 nM.

B30: Bid BH3 R21A, phage-displayed (peptide)
peptide: QEDIIRNIARHLAQVGDSMDASIPPG
notes: as for B1
In experiment [1], B30 gave a Fold/wt of 2 fold and an IC50 of 52 nM.

B31: Bid BH3 V15A, phage-displayed (peptide)
peptide: QEDIIRNIARHLAQAGDSMDRSIPPG
notes: as for B1
In the case of B31, in experiment [1], the Fold/wt was 3 fold and the IC50 is 59 nM.

B32: Bid BH3 E2A, phage-displayed (peptide)
peptide: QADIIRNIARHLAQVGDSMDRSIPPG
notes: as for B1
Consider B32, for which, in experiment [1], the Fold/wt was found to be 2 fold and the IC50 turned out to be 34 nM.

B33: Bid BH3 wild type, phage-displayed (peptide)
peptide: QEDIIRNIARHLAQVGDSMDRSIPPG
notes: M13 phage display: FLAG-26mer-GGGT-g3(249-406); also called wtBid
For B33, in experiment [1], the Fold/wt is 1 fold and the IC50 is 23 nM.

B34: Bad BH3 R7A, phage-displayed (peptide)
peptide: NLWAAQAYGRELRRMSDEFVDSFKKG
notes: as for B1
For B34, in experiment [2], the Fold/wt was found to be 1 fold and the IC50 worked out at 32 nM. In experiment [3], this molecule gave a Fold/wt of 1 fold and an IC50 of 14 nM.

B35: Bad BH3 R14A, phage-displayed (peptide)
peptide: NLWAAQRYGRELRAMSDEFVDSFKKG
notes: as for B1
In experiment [2], B35 had a Fold/wt of 2 fold and an IC50 of 86 nM. Further, in experiment [3], the Fold/wt came out at 5 fold and the IC50 turned out to be 57 nM.

B36: Bad BH3 E18A, phage-displayed (peptide)
peptide: NLWAAQRYGRELRRMSDAFVDSFKKG
notes: as for B1
Turning to B36, the Fold/wt in experiment [2] stood at 1 fold; in experiment [3], 2 fold. Further, the IC50 in experiment [2] is 55 nM; in experiment [3], 29 nM.

B37: Bad BH3 M15A, phage-displayed (peptide)
peptide: NLWAAQRYGRELRRASDEFVDSFKKG
notes: as for B1
In experiment [2], B37 yielded a Fold/wt of 1 fold and a 50% inhibitory concentration (IC50) of 43 nM. In experiment [3], this molecule displayed a Fold/wt of 3 fold and an IC50 of 43 nM.

B38: Bad BH3 R10A, phage-displayed (peptide)
peptide: NLWAAQRYGAELRRMSDEFVDSFKKG
notes: as for B1
In experiment [2], B38 yielded a Fold/wt of 1 fold and an IC50 of 41 nM. Also, in experiment [3], the Fold/wt came to 1 fold and the IC50 turned out to be 14 nM.

B39: Bid BH3 S22A, phage-displayed (peptide)
peptide: QEDIIRNIARHLAQVGDSMDRAIPPG
notes: as for B1
Consider B39, for which, in experiment [1], the Fold/wt is 1 fold and the IC50 is 27 nM.

B40: Bad BH3 W3A, phage-displayed (peptide)
peptide: NLAAAQRYGRELRRMSDEFVDSFKKG
notes: as for B1
In experiment [2], B40 registered a Fold/wt of 1 fold and an IC50 of 33 nM. In experiment [3], this molecule yielded a Fold/wt of 1 fold and an IC50 of 12 nM.

B41: Bid BH3 G26E, phage-displayed (peptide)
peptide: QEDIIRNIARHLAQVGDSMDRSIPPE
notes: as for B1
Consider B41, for which, in experiment [1], the Fold/wt came to 1 fold and the IC50 was 25 nM.

B42: Bad BH3 L2A, phage-displayed (peptide)
peptide: NAWAAQRYGRELRRMSDEFVDSFKKG
notes: as for B1
In experiment [2], B42 gave a Fold/wt of 1 fold and a half-inhibitory concentration (IC50) of 35 nM. In experiment [3], this molecule had a Fold/wt of 1 fold and an IC50 of 7 nM.
